Measured values as given in patent US20200399381A1 (I MAB BIOPHARMA US, published 2020).

T1: recombinant His-tagged human IFNAR-1-ECD protein (human, UniProt P17181 28-436)
T1 construct: extracellular domain; the Biacore text says His-tagged human IFNAR-1-ECD; also called His-tagged IFNAR-1; hIFNAR-1 protein; not shown: His tag
T1 sequence (looked up): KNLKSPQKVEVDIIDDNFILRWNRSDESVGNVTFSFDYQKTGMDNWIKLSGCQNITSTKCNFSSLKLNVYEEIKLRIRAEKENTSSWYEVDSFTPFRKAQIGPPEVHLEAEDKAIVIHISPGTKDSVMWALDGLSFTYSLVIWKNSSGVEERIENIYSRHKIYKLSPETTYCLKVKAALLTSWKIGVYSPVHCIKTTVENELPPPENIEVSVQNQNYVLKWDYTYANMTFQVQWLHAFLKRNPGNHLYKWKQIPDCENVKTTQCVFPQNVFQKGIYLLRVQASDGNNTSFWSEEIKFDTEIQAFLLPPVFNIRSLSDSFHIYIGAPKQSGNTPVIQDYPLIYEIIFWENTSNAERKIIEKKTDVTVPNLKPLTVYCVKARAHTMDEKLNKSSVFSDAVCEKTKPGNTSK

T2: human IFNAR-1 on cells (human, UniProt P17181 28-557)
T2 sequence (looked up): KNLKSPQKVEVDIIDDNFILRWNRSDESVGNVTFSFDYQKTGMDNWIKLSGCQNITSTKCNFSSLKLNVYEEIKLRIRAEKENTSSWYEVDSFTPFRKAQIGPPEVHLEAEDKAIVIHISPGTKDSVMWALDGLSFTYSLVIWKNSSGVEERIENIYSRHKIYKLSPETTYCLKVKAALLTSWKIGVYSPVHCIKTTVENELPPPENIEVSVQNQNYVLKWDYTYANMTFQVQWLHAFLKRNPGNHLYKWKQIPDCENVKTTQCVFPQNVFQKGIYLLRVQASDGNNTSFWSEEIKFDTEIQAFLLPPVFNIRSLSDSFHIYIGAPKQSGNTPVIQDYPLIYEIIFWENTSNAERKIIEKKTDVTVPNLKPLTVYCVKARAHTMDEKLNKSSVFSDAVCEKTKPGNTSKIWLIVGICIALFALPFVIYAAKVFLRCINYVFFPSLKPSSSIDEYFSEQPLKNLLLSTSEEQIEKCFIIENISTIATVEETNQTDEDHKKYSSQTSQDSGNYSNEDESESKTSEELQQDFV


Columns and labels:
[1] = biological target: T1, recombinant His-tagged human …; experiment: ELISA, coated His-tagged IFNAR-1
Protocol: This example tested the binding properties of the anti-IFNAR-1 mouse antibodies to the human IFNAR-1 proteins by ELISA assay. In short, His-tagged IFNAR-1 was coated at 0.5 μg/ml overnight and then blocked by 5% BSA in PBS. Serial diluted anti-IFNAR-1 antibodies were incubated with the coated antigen for 1 h at room temperature. The resulting plates were washed with PBS/T and incubated with goat anti-mouse IgG-HRP for 1 h at room temperature. The plates were developed with TMB substrate and analyzed by spectrophotometer at OD 450-630 nm.

[2] = biological target: T2, human IFNAR-1 on cells; experiment: cell-based or functional assay

Binder | EC50 [1] | EC50 (nM), inhibition of IFNα2b-induced SEAP reporter in HEK-Blue IFNα/β cells [2]
370E5 (antibody, V domains shown, Hybridoma-derived monoclonal antibody) VH: EVQLQQSGAELVKPGASVKLSCTASGFNIKDYYIHWVKQRTEQGLEWIGRIDPEDGETKYAPKFQGKATITADTSSNTAYLQLSSLTSEDTAVYYCARFGGLTAMDYWGQGTSVTVSS VL: DIVMTQSQKFMSTSVGDRVSVTCKASQNVGTNVAWYQQKPGQSPKALIYATSYRYSGVPDRFTGSGSGTDFTLTISNVQSEDLAEYFCQQYNNYPYTFGGGTKLEIK | 0.052 nM | 2.17 nM
392D6 (antibody, V domains shown, Hybridoma-derived monoclonal antibody) VH: AVQLQQSGTELVKPGASVKLSCSASGFNIKDYYVHWVKQKTEQGLEWIGRIDPEDGETKYAPKFQGKATVTADTSSNTAYMQLSSLTSEDTAVYYCTRFGGLDAMDYWGQGTSVTVSS VL: DIVMTQSQKFMSTSVGDRVSVTCKASQNVGTNVAWYQQKPGQSPKPLIYSTSYRYNGVPDRFTGSGSGTEFTLTISNVQSEDLAEYFCQQFNRYPYTFGGGTKLEIK | 0.054 nM | 0.824 nM
104A3 (antibody, V domains shown, Hybridoma-derived monoclonal antibody) VH: EVQLQQSGAELVKPGASVKVSCTGSGFNIKDYYIHWVKQRTEQGLEWIGRIDPEDGETKYAPKFQGKATITSDTSSNTAYLQLSSLTSGDTAVYFCARYDGYYCFDYWGQGTTLTVSS VL: DIVMTQSQKFMSTSVGDRVSVTCKASQNVGTNVAWYQQKPGQSPKPLIYSTSYRYSGVPDRFTGSGSGTDFTLTISNVQSADLAAYFCQQYNNYPYTFGGGTRLEIK | 0.056 nM | 1.31 nM
124D12 (antibody, V domains shown, Hybridoma-derived monoclonal antibody) VH: EVQLQQSGAELVKPGASVKVSCTGSGFNIKDYYIHWVKQRTEQGLEWIGRIDPEDGETKYAPKFQGRATITSDTSSNTAYLQLSSLTSGDTAVYYCARYDGYYCFDYWGQGTTLTVSS VL: DIVMTQSQKFMSTSVGDRVSVTCKASQNVGTNVAWYQQKPGQSPKPLIYSTSYRYSGVPDRFTGSGSGTDFTLTISNVQSADLAAYFCQQYNNYPYTFGGGTRLEIK | 0.062 nM | 0.981 nM
402G3 (antibody, V domains shown, Hybridoma-derived monoclonal antibody) VH: QVQLQQSGAELVKPGSSVKISCKASGFTFTSHFIHWIKQQPGNGLKWIGWIYPGDDDTEYNHKFNGKATLTADKSSSTAYMHLSSLTSEDSAVYFCARRVEYYNGGFAYWGQGTLVTVSS VL: DVQMTQSPSYLAAPPGESVSISCKASKNIRNNLGWYQERPGKTPNLLIHSGSTLQSGAPSRFSGGGSGTDFTLTIRSLESEDSAVYYCQQYDQYPLTFGSGTKLEIK | 0.137 nM | 1.27 nM

The next lines start with the values.

EC50 [1] | EC50 (nM), inhibition of IFNα2b-induced SEAP reporter in HEK-Blue IFNα/β cells [2] | Binder
0.015 nM | 0.286 nM | 485G10 (antibody, V domains shown, Hybridoma-derived monoclonal antibody; also called mouse antibody 485G10) VH: EVQLQQSGAELVKPGASVKLSCTGSGFNIKDYYIHWVKQRTEQGLEWIGRIDPEDGETKYAPKFQGKATITADTSSNTAYLQLSSLTSEDTVVYYCGRYHGYWALDYWGQGTSVTVSS VL: DIVMTQSQKFMSTSVGDRVSVTCKTSQNVGTNVAWYQQKPGQSPKPLIYSTSYRYSGVPDRFTGSGSGTDFTLIISNVQSEDLAEYFCHQYFSYPYTFGGGTLLEIK
0.028 nM | 0.161 nM | 487E3 (antibody, V domains shown, Hybridoma-derived monoclonal antibody) VH: EVQLQQSGAELVKPGASVKLSCSASGFNIKDCYIHWVKQRTEQGLEWIGRIDPEDGETKYAPKFQAKATITADTSSNTAYLQLNSLTSEDTAVYYCARHCNFLYFDYWGQGSTLTVS VL: DIVMTQSQKSMSTSLGDRVTVTCKASQNVGTIVAWYQLKPGQSPKTLIYSASYRSSGVPDRFTGSGSGTDFTLTISNVQSEDLAEYFCQQYNNYPVIFGSGTKLEIR
0.733 nM | 1.3 nM | 430H6 (antibody, V domains shown, Hybridoma-derived monoclonal antibody) VH: QVTLKESGPGILQPSQTLSLTCTFSGFSLNTYGMGVGWIRQPSGKGLEWLANIWWDDDKYYNPSLKNRLTISKDTSNNQAFLKITNVDTADTATYFCARHPLPGYKDNYVVDAWGQGASVTVSS VL: DVVLTQTPGSLSVTLGDQASISCRSSQSLEYSDQYTYLEWYLQKSGQSPQLLIYGVSNRFSGVPDRFIGSGSGTDFTLKISRVEPEDLGVYYCFQATHDPYTFGAGTKLELK
